Experimental findings from US20230183351A1 (AVENCELL EUROPE, published 2023) are described below.

The target of this assay is T1, PD-L1 on PD-L1-positive target cell lines DU-145 and U-251 (human, UniProt Q9NZQ7 19-290).
T1 construct: also called Programmed death ligand 1; CD274
Briefly: flow cytometry on DU-145 and U-251 cells, shown as % binding of max over time at 4 C or 37 C.

T1 sequence (Q9NZQ7 19-290): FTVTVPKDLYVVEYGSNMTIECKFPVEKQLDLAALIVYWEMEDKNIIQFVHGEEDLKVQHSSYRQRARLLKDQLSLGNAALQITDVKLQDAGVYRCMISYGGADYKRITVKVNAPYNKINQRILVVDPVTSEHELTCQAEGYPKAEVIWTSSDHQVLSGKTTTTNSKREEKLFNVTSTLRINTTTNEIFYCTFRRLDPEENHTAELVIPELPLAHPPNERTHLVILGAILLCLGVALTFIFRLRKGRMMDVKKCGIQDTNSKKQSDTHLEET
Method: Data is shown as % binding of max by normalizing the obtained MFI to the highest MFI measured. […] Data is shown as mean ± SD of one experiment measured in technical triplicates.
Subsequently, stained target cells were incubated for indicated time points at either 4° C. or 37° C. Binding of PD-L1-specific TMs was analyzed via flow cytometry using an PE-labeled α-His Ab.

B1: TM-PD-L1-scFv5 (scFv)
scFv: GQVQLVQSGAEVKKPGASVKVSCKASGYTFTDYGFSWVRQAPGQGLEWMGWITAYNGNTNYAQKLQGRVTMTTDTSTSTVYMELRSLRSDDTAVYYCARDYFYGMDVWGQGTTVTVSSGGGGSGGGGSGGGGSEIVLTQSPATLSLSPGERATLSCRASQSVSSYLVWYQQKPGQAPRLLIYDASNRATGIPARFSGSGSGTDFTLTISSLEPEDFAVYYCQQRSNWPRTFGQGTKVEIKAAAKPLPEVTDEYARGGPGGGGSHHHHHHHH
notes: also called TMPD-L1v5
For B1, the binding result is “binds”.
